{"source": "paper PMC8175417", "about": "“Streptococcus pneumoniae pneumolysin and neuraminidase A convert high-density lipoproteins into pro-atherogenic particles” (iScience, 2021)", "proteins": {"B1": {"name": "Recombinant Streptococcus pneumoniae serotype 2 Pneumolysin (PLY) (natural protein, UniProt Q04IN8 1-471, looked up)", "chain": "MANKAVNDFILAMNYDKKKLLTHQGESIENRFIKEGNQLPDEFVVIERKKRSLSTNTSDISVTATNDSRLYPGALLVVDETLLENNPTLLAVDRAPMTYSIDLPGLASSDSFLQVEDPSNSSVRGAVNDLLAKWHQDYGQVNNVPARMQYEKITAHSMEQLKVKFGSDFEKTGNSLDIDFNSVHSGEKQIQIVNFKQIYYTVSVDAVKNPGDVFQDTVTVEDLKQRGISAERPLVYISSVAYGRQVYLKLETTSKSDEVEAAFEALIKGVKVAPQTEWKQILDNTEVKAVILGGDPSSGARVVTGKVDMVEDLIQEGSRFTADHPGLPISYTTSFLRDNVVATFQNSTDYVETKVTAYRNGDLLLDHSGAYVAQYYITWDELSYDHQGKEVLTPKAWDRNGQDLTAHFTTSIPLKGNVRNLSVKIRECTGLAWEWWRTVYEKTDLPLVRKRTISIWGTTLYPQVEDKVEND", "notes": "Pneumolysin (PLY), Streptococcus pneumoniae serotype 2; recombinant protein bought from Cusabio; Detected with a penta-His antibody"}}, "target": "the molecule itself", "assay": "non-reducing SDS-PAGE with Western blot; hirudin blood incubated with 200 nM PLY for 1 h at 37 °C; total HDL isolated from the plasma by flotation ultracentrifugation; samples and 50 ng PLY control run under non-reducing conditions; detected with anti-penta-His antibody"}
{"protein": "B1", "values": [{"measurement": "binding result", "result": "binds"}]}
